Test results as given in patent US20230212306A1 (Daiichi Sankyo, published 2023).

T1: rat TLR7-Flag-His×6, expressed in Ba/F3 cells (rat, UniProt P58681 27-1050 (mouse entry))
T1 construct: cells permeabilised with 0.1% saponin; not shown: Flag-His×6 tag added to the C-terminus
T1 chain: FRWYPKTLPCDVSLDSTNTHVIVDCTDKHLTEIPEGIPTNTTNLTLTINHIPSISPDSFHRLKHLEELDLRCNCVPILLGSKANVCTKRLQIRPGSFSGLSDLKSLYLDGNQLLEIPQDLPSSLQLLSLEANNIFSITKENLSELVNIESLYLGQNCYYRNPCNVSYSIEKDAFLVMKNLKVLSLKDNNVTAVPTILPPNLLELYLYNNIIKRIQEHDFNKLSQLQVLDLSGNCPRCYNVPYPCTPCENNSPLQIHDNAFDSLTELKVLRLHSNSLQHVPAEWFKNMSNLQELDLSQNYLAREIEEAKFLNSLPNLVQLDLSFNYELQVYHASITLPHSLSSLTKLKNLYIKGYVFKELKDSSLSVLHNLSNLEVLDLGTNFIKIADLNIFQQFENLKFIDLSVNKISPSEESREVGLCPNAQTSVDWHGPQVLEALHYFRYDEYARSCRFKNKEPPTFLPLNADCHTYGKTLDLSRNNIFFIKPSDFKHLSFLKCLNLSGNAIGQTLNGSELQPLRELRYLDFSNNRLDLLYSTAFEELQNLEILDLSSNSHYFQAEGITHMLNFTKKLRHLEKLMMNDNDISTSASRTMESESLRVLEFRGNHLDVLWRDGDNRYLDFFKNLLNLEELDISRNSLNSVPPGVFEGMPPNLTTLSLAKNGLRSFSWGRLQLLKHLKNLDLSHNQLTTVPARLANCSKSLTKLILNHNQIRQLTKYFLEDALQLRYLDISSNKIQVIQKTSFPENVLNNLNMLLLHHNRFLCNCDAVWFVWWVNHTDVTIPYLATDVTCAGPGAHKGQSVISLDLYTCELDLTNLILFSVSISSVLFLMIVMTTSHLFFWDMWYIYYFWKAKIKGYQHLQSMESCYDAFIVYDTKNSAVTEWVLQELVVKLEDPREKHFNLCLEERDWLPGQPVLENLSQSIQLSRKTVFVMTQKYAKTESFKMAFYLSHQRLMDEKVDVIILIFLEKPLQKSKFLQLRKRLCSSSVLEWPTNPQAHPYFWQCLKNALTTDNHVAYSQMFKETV

T2: mouse TLR7-Flag-His×6, expressed in Ba/F3 cells (mouse, UniProt P58681 27-1050)
T2 construct: cells permeabilised with 0.1% saponin; not shown: Flag-His×6 tag added to the C-terminus
T2 sequence: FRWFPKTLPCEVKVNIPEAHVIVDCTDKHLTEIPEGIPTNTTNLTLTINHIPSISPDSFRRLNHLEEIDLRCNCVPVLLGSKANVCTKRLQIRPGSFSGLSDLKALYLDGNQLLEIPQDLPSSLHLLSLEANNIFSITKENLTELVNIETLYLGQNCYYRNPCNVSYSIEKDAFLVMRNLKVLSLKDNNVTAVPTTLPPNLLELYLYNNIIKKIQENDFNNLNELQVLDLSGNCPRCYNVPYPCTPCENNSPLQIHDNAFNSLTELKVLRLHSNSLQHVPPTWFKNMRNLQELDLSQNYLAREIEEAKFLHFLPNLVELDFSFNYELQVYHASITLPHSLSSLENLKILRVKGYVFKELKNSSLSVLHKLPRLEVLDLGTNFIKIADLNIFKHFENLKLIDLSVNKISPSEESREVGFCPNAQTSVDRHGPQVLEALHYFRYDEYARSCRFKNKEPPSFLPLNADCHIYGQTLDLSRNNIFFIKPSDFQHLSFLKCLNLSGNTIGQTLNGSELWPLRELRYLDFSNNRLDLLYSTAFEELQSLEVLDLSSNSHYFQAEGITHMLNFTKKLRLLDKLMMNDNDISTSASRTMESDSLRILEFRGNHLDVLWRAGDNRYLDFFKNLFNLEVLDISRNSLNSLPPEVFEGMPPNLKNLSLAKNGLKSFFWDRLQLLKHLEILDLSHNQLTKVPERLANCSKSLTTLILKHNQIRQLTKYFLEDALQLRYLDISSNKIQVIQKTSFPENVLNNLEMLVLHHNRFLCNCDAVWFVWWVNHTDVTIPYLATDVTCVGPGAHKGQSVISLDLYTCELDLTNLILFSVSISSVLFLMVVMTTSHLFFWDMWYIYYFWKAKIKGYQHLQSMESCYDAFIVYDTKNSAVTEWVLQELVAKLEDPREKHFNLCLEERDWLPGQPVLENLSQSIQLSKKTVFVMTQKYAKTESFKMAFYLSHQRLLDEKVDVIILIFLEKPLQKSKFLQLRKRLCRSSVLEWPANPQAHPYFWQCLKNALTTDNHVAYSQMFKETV

T3: mouse TLR7-Flag, expressed in HEK293 cells (mouse, UniProt P58681 27-1050)
T3 construct: not shown: Flag tag
T3 sequence: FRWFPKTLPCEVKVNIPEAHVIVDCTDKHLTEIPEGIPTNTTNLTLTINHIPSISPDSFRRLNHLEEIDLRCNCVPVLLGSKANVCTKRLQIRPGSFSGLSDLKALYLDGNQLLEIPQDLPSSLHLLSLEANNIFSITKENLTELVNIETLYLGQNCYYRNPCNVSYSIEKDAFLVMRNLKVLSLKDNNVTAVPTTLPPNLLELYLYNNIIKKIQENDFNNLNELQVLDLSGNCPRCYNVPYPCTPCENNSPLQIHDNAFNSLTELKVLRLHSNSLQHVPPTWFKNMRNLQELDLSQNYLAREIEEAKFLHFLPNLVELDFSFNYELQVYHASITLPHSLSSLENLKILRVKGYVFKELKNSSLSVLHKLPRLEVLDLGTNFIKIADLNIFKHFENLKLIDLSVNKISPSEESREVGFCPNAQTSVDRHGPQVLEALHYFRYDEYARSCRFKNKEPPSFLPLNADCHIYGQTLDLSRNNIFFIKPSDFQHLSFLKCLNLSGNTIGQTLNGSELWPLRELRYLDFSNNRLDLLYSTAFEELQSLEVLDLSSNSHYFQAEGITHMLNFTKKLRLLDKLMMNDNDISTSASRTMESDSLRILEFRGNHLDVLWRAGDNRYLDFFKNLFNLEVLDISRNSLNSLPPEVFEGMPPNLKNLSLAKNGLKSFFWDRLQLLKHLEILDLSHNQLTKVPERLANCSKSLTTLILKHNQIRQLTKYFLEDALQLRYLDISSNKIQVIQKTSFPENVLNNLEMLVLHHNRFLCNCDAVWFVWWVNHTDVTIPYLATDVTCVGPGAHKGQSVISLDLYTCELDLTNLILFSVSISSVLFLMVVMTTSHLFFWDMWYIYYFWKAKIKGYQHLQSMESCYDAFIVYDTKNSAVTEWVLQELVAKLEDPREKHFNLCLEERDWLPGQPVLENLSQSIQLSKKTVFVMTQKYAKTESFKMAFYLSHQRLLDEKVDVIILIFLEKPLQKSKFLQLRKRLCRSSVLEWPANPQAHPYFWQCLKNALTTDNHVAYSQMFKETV


Tests used:
[1] = molecular target: T1, rat TLR7-Flag-His×6, expressed in Ba/F3 …; test: flow cytometry (MFI) on saponin-permeabilised Ba/F3 cells expressing rat TLR7-Flag-His×6
Text: (§1) The Ba/F3 cell line expressing human TLR7-Flag-His×6/human Unc93B1-HA×2 established above in 1)-1-1, the Ba/F3 cell line expressing mouse TLR7-Flag-His×6 established above in 2)-1-1, the Ba/F3 cell line expressing rat TLR7-Flag-His×6×2 established above in 2)-1-2, and the Ba/F3 cell line expressing monkey TLR7-Flag-His×6 established above in 2)-1-3 were subjected to membrane permeation with 0.1% Saponin and stained using AT01 antibody, NB7 antibody, and FAN2 antibody, and a secondary antibody, Goat anti-mouse IgG (H+L)-PE (eBioscience). The binding selectivity of each antibody was evaluated by comparing the average fluorescence intensity (MFI) based on flow cytometry analysis.

[2] = molecular target: T2, mouse TLR7-Flag-His×6, expressed in …; test: flow cytometry (MFI) on saponin-permeabilised Ba/F3 cells expressing mouse TLR7-Flag-His×6
Text: as §1

[3] = molecular target: T3, mouse TLR7-Flag, expressed in HEK293 …; test: flow cytometry on fixed and permeabilised HEK293 cells expressing mouse TLR7-Flag
Text: The HEK293 cells expressing human TLR7 (variant 1)-Flag prepared in 8)-1, the HEK293 cells expressing human TLR7 (variant 2)-Flag prepared in 8)-2, the HEK293 cells expressing monkey TLR7-Flag prepared in 8)-3, the HEK293 cells expressing mouse TLR7-Flag prepared in 8)-4, and the HEK293 cells expressing rat TLR7-Flag prepared in 8)-5 were immobilized/subjected to membrane permeation with a Fixation and Permeabilization Solution (Becton, Dickinson and Company) and thereafter stained using huAT01_H3L2_IgG1LALA, which is one of the humanized anti-human TLR7 antibodies, and ALEXA FLUOR® 647 AffiniPure Goat anti-human IgG+IgM (H+L) (Jackson ImmunoResearch Inc.), which is the secondary antibody.
The binding of the humanized anti-human TLR7 antibody to human TLR7 was detected based on flow cytometry (Miltenyi Biotec K.K.), and the data was analyzed using software (Flowjo) which analyzes the data of flow cytometry.

Row | binding result [1] | binding result [2] | binding result [3] | Binder
1 | no binding | no binding |  | FAN2 antibody (antibody, IgG1, V domains shown, also called mouse anti-human TLR7 antibody (FAN2)) VH: QVQLKESGPGLVAPSQSLSITCTVSGFSLTGYGVNWVRQPPGKGLEWLGMIWGDGSTDYNSALKSRLSIRKDNSKSQVFLKMNSLQTDDTARYYCARDKGYDGYYYAMDYWGQGTSVTVSS VL: DIQMTQSPASLSASVGETVTITCRASENIYSYLAWYQQKQGKSPQLLVYDAKTLAEGVPSRFSGSGSGTQFSLKINSLQPEDFGSYYCQHHYGIPYTFGGGTKLEIK
2 | no binding | no binding |  | NB7 antibody (antibody, IgG1, V domains shown, also called mouse anti-human TLR7 antibody (NB7)) VH: DVQLQESGPGLVKPSQSLSLTCTVTGYSITSDYAWNWIRQFPGNKLEWMGHISYRGNTNYNPSLKSRISITRDTSKNQFFLQLNSVTTEDTATYYCASWNYYGYVDYAMDYWGQGTSVTVSS VL: DIQMTQTPSSLSASLGDRVTISCRASQDISNYLNWYQQKPDGTVKLLIYYTSRLHSGVPSRFSGSGSGTDYSLTINNLEQEDIATYFCQQGDTFPTFGGGTKLEIK
3 | no binding | no binding |  | AT01 antibody (antibody, IgG1, V domains shown, also called mouse anti-human TLR7 antibody (AT01)) VH: QVQLQQPGAELVKPGASVNLSCKASGYTFTNNWLHWVKQRPGRGLEWIGDIYPSNGRTNYNEQFKTKATLTVDKSSSTAYMQLSSLTSEDSAVYFCARERGYFDYWGQGTALTVSS VL: DIQMTQSPSSLSTSLGGKVTITCKASQDINKYIAWYQHKPGKGPRLLIHYTSTLQPGIPSRFSGSGSGRDYSFSISNLEPEDIATYYCLQYDYLLTFGAGTKLELK
4 |  |  | no binding | huAT01_H3L2_IgG1LALA antibody (antibody, V domains shown, Humanized AT01; heavy huAT01_H3_IgG1LALA, light huAT01_L2) VH: QVQLVQSGAEVKKPGASVKVSCKASGYTFTNNWLHWVRQAPGQGLEWMGDIYPSNGRTNYAQKFQGRVTLTVDKSTSTAYMELSSLRSEDTAVYFCARERGYFDYWGQGTLVTVSS VL: DIQMTQSPSSLSASVGDRVTITCKASQDINKYIAWYQQKPGKAPKLLIHYTSTLQPGIPSRFSGSGSGRDYTLTISSLQPEDFATYYCLQYDYLLTFGQGTKVEIKR
